{"source": "patent US20220323445A1", "about": "“REDUCING IMMUNOGENICITY TO PEGLOTICASE” (Horizon Therapeutics Ireland DAC, priority 2020, published 2022)", "molecules": {"B1": {"name": "pegloticase (protein)", "chain": "TYKKNDEVEFVRTGYGKDMIKVLHIQRDGKYHSIKEVATTVQLTLSSKKDYLHGDNSDVIPTDTIKNTVNVLAKFKGIKSIETFAVTICEHFLSSFKHVIRAQVYVEEVPWKRFEKNGVKHVHAFIYTPTGTHFCEVEQIRNGPPVIHSGIKDLKVLKTTQSGFEGFIKDQFTTLPEVKDRCFATQVYCKWRYHQGRDVDFEATWDTVRSIVLQKFAGPYDKGEYSPSVQKTLYDIQVLTLGQVPEIEDMEISLPNIHYLNIDMSKMGLINKEEVLLPLDNPYGKITGTVKRKLSSRL", "modifications": "monomethoxy PEG conjugated; Krystexxa Sequence", "notes": "covalent conjugate of uricase produced by a genetically modified strain of Escherichia coli and monomethoxypoly (ethylene glycol)"}}, "tested_on": "serum uric acid (sUA)", "assay": "Serum uric acid (sUA) levels and sUA responders, open-label study of pegloticase with MTX (NCT03635957)", "format": "in vivo, human", "procedure": "The primary objective is to estimate the response rate during Month 6 (Weeks 20, 22, and 24), as measured by the sustained normalization of serum uric acid (SUA) to <6 mg/dL for at least 80% of the time during Month 6 in subjects receiving KXX with MTX.\nThe primary efficacy outcome endpoint is the sustained normalization of SUA to <6 mg/dL for at least 80% of the time during month 6 (weeks 20, 22, and 24) in subjects receiving KXX with MTX. This is slightly below the urate solubility threshold and this threshold has been the accepted standard for nearly all modern gout trials. Participants who achieve this endpoint were classified as “responders.” Serum uric acid (SUA) responders may also be defined as participants achieving and maintaining SUA <6 mg/dL for at least 80% of the time during Month 6 (Weeks 20, 22, and 24).\nBlood samples may be collected prior to each pegloticase infusion for measurement of SUA levels using the Beckman Coulter AU System Uric Acid procedure. Participants were declared “non-responders” if there were SUA measures >6 mg/dL at 2 consecutive study visits beginning with the week 2 visit. […] If the SUA goal is not maintained before or at the 12-week mark, it was assumed that the participant had developed clinically relevant anti-pegloticase antibody and they received no further infusions. This assumption and subsequent discontinuation of pegloticase was consistent with the protocol of large phase III randomized controlled trials and the product label. A formal stopping rule was 2 occasions of SUA levels of greater than 6 mg/dL.\nClinical Chemistry—Blood samples were collected prior to each pegloticase infusion for measurement of SUA levels (primary efficacy parameter) using the Beckman Coulter AU System Uric Acid procedure. In this procedure uric acid is converted to hydrogen peroxide. Hydrogen peroxide reacts with reagent to produce a chromophore which is read bichromatically at 660/800 nm. The amount of dye formed is proportional to the uric acid concentration in the sample.\nSerum samples for measurement of SUA levels were collected at the Screening Visit, the Week −4 Visit (prior to the first dose of MTX), and the Week −2 Visit during the MTX Run-in Period; within 48 hours prior to each pegloticase infusion and after the end of each pegloticase infusion prior to discharge from the site during the Pegloticase+IMM Period; at the non-infusion Week 52/End of Study/Early Termination Visits and at the Post Treatment 3 and 6 Month Follow-up Visits. Additional serum samples for SUA levels were collected at optional non-infusion (Frequent Sampling) Visits at Weeks 1 and 7. […] Subjects with SUA level >6 mg/dL at 2 consecutive visits beginning at Week 2 visit discontinued treatment, completed the End of Pegloticase Infusion Visit procedures within 2 weeks and continued the subject visits according to the protocol (without treatment).\nEfficacy analyses were performed using the modified intention-to-treat (mITT) population, defined as all enrolled subjects who received ≥1 dose of pegloticase. The proportion of Month 6 responders was summarized, along with a 95% confidence interval for the proportion. The proportion of Month 3 and overall (Months 3 and 6 combined) responders was analyzed similarly.\nA subject was declared a non-responder if the subject had SUA level >6 mg/dL at 2 consecutive study visits beginning with the Week 2 Visit. In addition, a subject who withdraws from study treatment for any reason after the first dose of pegloticase in the KXX+MTX Period and prior to Month 6 (for the primary endpoint) or Month 3 (for the secondary endpoint) was considered a non-responder if SUA values were not collected at the planned time points.\nPatients were administered oral MTX (15 mg/week) and folate (1 mg/day) 4 weeks prior to the first pegloticase infusion (Day 1) and throughout the pegloticase treatment period. […]", "key": {"[1]": {"details": "Week 6 - Pre-Infusion, Month 6 sUA Responders"}, "[2]": {"details": "Week 6 - Pre-Infusion, mITT, n=13"}, "[3]": {"details": "Week 8 - Post-Infusion, Month 6 sUA Non-Responders"}, "[4]": {"details": "Week 8 - Post-Infusion, Month 6 sUA Responders"}, "[5]": {"details": "Week 8 - Post-Infusion, mITT, n=12"}, "[6]": {"details": "Week 8 - Pre-Infusion, Month 6 sUA Non-Responders"}, "[7]": {"details": "Week 8 - Pre-Infusion, Month 6 sUA Responders"}, "[8]": {"details": "Week 8 - Pre-Infusion, mITT, n=12"}, "[9]": {"details": "Week 10 - Post-Infusion, Month 6 sUA Responders"}, "[10]": {"details": "Week 10 - Post-Infusion, mITT, n=11"}, "[11]": {"details": "Week 10 - Pre-Infusion, Month 6 sUA Non-Responders"}, "[12]": {"details": "Week 10 - Pre-Infusion, Month 6 sUA Responders"}, "[13]": {"details": "Week 10 - Pre-Infusion, mITT, n=12"}, "[14]": {"details": "Week 12 - Post-Infusion, Month 6 sUA Responders"}}, "data": [{"molecule": "B1", "values": [{"measurement": "sUA < 6 mg/dL, %", "setting": "[1]", "result": "(100%)"}, {"measurement": "sUA Change from Baseline, Mean", "setting": "[1]", "result": -8.97, "unit": "mg/dL"}, {"measurement": "sUA Change from Baseline, Median", "setting": "[1]", "result": -8.80, "unit": "mg/dL"}, {"measurement": "sUA Observed, Mean", "setting": "[1]", "result": 0.30, "unit": "mg/dL"}, {"measurement": "sUA Observed, Median", "setting": "[1]", "result": 0.30, "unit": "mg/dL"}, {"measurement": "sUA < 6 mg/dL, n (%)", "setting": "[2]", "result": "12 (92.3%)"}, {"measurement": "sUA Change from Baseline, Mean (SD)", "setting": "[2]", "result": "−8.31 (3.538) mg/dL"}, {"measurement": "sUA Change from Baseline, Median", "setting": "[2]", "result": -8.80, "unit": "mg/dL"}, {"measurement": "sUA Observed, Mean (SD)", "setting": "[2]", "result": "0.91 (2.191) mg/dL"}, {"measurement": "sUA Observed, Median", "setting": "[2]", "result": 0.30, "unit": "mg/dL"}, {"measurement": "sUA < 6 mg/dL, %", "setting": "Week 7, Month 6 sUA Responders", "result": "(100%)"}, {"measurement": "sUA Change from Baseline, Mean", "setting": "Week 7, Month 6 sUA Responders", "result": -8.90, "unit": "mg/dL"}, {"measurement": "sUA Observed, Mean", "setting": "Week 7, Month 6 sUA Responders", "result": 0.30, "unit": "mg/dL"}, {"measurement": "sUA < 6 mg/dL, n (%)", "setting": "Week 7, mITT, n=4", "result": "4 (100%)"}, {"measurement": "sUA Change from Baseline, Mean (SD)", "setting": "Week 7, mITT, n=4", "result": "−8.90 (4.755) mg/dL"}, {"measurement": "sUA Change from Baseline, Median", "setting": "Week 7, mITT, n=4", "result": -7.85, "unit": "mg/dL"}, {"measurement": "sUA Observed, Mean (SD)", "setting": "Week 7, mITT, n=4", "result": "0.30 (0.000) mg/dL"}, {"measurement": "sUA Observed, Median", "setting": "Week 7, mITT, n=4", "result": 0.30, "unit": "mg/dL"}, {"measurement": "sUA < 6 mg/dL, %", "setting": "[3]", "result": "(100%)"}, {"measurement": "sUA Change from Baseline, Mean", "setting": "[3]", "result": -9.10, "unit": "mg/dL"}, {"measurement": "sUA Observed, Mean", "setting": "[3]", "result": 0.30, "unit": "mg/dL"}, {"measurement": "sUA < 6 mg/dL, %", "setting": "[4]", "result": "(100%)"}, {"measurement": "sUA Change from Baseline, Mean", "setting": "[4]", "result": -8.97, "unit": "mg/dL"}, {"measurement": "sUA Observed, Mean", "setting": "[4]", "result": 0.30, "unit": "mg/dL"}, {"measurement": "sUA < 6 mg/dL, n (%)", "setting": "[5]", "result": "12 (100%)"}, {"measurement": "sUA Change from Baseline, Mean (SD)", "setting": "[5]", "result": "−8.98 (2.679) mg/dL"}, {"measurement": "sUA Change from Baseline, Median", "setting": "[5]", "result": -8.95, "unit": "mg/dL"}, {"measurement": "sUA Observed, Mean (SD)", "setting": "[5]", "result": "0.30 (0.000) mg/dL"}, {"measurement": "sUA Observed, Median", "setting": "[5]", "result": 0.30, "unit": "mg/dL"}, {"measurement": "sUA Change from Baseline, Mean", "setting": "[6]", "result": -0.50, "unit": "mg/dL"}, {"measurement": "sUA Observed, Mean", "setting": "[6]", "result": 8.90, "unit": "mg/dL"}, {"measurement": "sUA < 6 mg/dL, %", "setting": "[7]", "result": "(100%)"}, {"measurement": "sUA Change from Baseline, Mean", "setting": "[7]", "result": -8.91, "unit": "mg/dL"}, {"measurement": "sUA Observed, Mean", "setting": "[7]", "result": 0.37, "unit": "mg/dL"}, {"measurement": "sUA < 6 mg/dL, n (%)", "setting": "[8]", "result": "11 (91.7%)"}, {"measurement": "sUA Change from Baseline, Mean (SD)", "setting": "[8]", "result": "−8.20 (3.624) mg/dL"}, {"measurement": "sUA Change from Baseline, Median", "setting": "[8]", "result": -8.33, "unit": "mg/dL"}, {"measurement": "sUA Observed, Mean (SD)", "setting": "[8]", "result": "1.08 (2.472) mg/dL"}, {"measurement": "sUA Observed, Median", "setting": "[8]", "result": 0.30, "unit": "mg/dL"}, {"measurement": "sUA < 6 mg/dL, %", "setting": "[9]", "result": "(100%)"}, {"measurement": "sUA Change from Baseline, Mean", "setting": "[9]", "result": -8.97, "unit": "mg/dL"}, {"measurement": "sUA Change from Baseline, Median", "setting": "[9]", "result": -8.80, "unit": "mg/dL"}, {"measurement": "sUA Observed, Mean", "setting": "[9]", "result": 0.30, "unit": "mg/dL"}, {"measurement": "sUA Observed, Median", "setting": "[9]", "result": 0.30, "unit": "mg/dL"}, {"measurement": "sUA < 6 mg/dL, n (%)", "setting": "[10]", "result": "11 (100%)"}, {"measurement": "sUA Change from Baseline, Mean (SD)", "setting": "[10]", "result": "−8.97 (2.810) mg/dL"}, {"measurement": "sUA Change from Baseline, Median", "setting": "[10]", "result": -8.80, "unit": "mg/dL"}, {"measurement": "sUA Observed, Mean (SD)", "setting": "[10]", "result": "0.30 (0.000) mg/dL"}, {"measurement": "sUA Observed, Median", "setting": "[10]", "result": 0.30, "unit": "mg/dL"}, {"measurement": "sUA Change from Baseline, Mean", "setting": "[11]", "result": -1.30, "unit": "mg/dL"}, {"measurement": "sUA Observed, Mean", "setting": "[11]", "result": 8.10, "unit": "mg/dL"}, {"measurement": "sUA < 6 mg/dL, %", "setting": "[12]", "result": "(100%)"}, {"measurement": "sUA Change from Baseline, Mean", "setting": "[12]", "result": -8.97, "unit": "mg/dL"}, {"measurement": "sUA Observed, Mean", "setting": "[12]", "result": 0.30, "unit": "mg/dL"}, {"measurement": "sUA < 6 mg/dL, n (%)", "setting": "[13]", "result": "11 (91.7%)"}, {"measurement": "sUA Change from Baseline, Mean (SD)", "setting": "[13]", "result": "−8.33 (3.476) mg/dL"}, {"measurement": "sUA Change from Baseline, Median", "setting": "[13]", "result": -8.70, "unit": "mg/dL"}, {"measurement": "sUA Observed, Mean (SD)", "setting": "[13]", "result": "0.95 (2.252) mg/dL"}, {"measurement": "sUA Observed, Median", "setting": "[13]", "result": 0.30, "unit": "mg/dL"}, {"measurement": "sUA < 6 mg/dL, %", "setting": "[14]", "result": "(100%)"}, {"measurement": "sUA Change from Baseline, Mean", "setting": "[14]", "result": -9.13, "unit": "mg/dL"}, {"measurement": "sUA Change from Baseline, Median", "setting": "[14]", "result": -9.05, "unit": "mg/dL"}, {"measurement": "sUA Observed, Mean", "setting": "[14]", "result": 0.30, "unit": "mg/dL"}, {"measurement": "sUA Observed, Median", "setting": "[14]", "result": 0.30, "unit": "mg/dL"}, {"measurement": "sUA < 6 mg/dL, n (%)", "setting": "Week 12 - Post-Infusion, mITT, n=10", "result": "10 (100%)"}]}]}
